{"source": "patent US8691772B2", "about": "“HSP60, HSP60 peptides and T cell vaccines for immunomodulation” (Yeda Research and Development Co. Ltd., priority 2005, dated 2014)", "molecules": {"B1": {"name": "HSP60: recombinant human heat shock protein 60 (StressGen Biotechnologies) (protein)", "chain": "AKDVKFGADARALMLQGVDLLADAVAVTMGPKGRTVIIEQSWGSPKVTKDGVTVAKSIDLKDKYKNIGAKLVQDVANNTNEEAGDGTTTATVLARSIAKEGFEKISKGANPVEIRRGVMLAVDAVIAELKKQSKPVTTPEEIAQVATISANGDKEIGNIISDAMKKVGRKGVITVKDGKTLNDELEIIEGMKFDRGYISPYFINTSKGQKCEFQDAYVLLSEKKISSIQSIVPALEIANAHRKPLVIIAEDVDGEALSTLVLNRLKVGLQVVAVKAPGFGDNRKNQLKDMAIATGGAVFGEEGLTLNLEDVQPHDLGKVGEVIVTKDDAMLLKGKGDKAQIEKRIQEIIEQLDVTTSEYEKEKLNERLAKLSDGVAVLKVGGTSDVEVNEKKDRVTDALNATRAAVEEGIVLGGGCALLRCIPALDSLTPANEDQKIGIEIIKRTLKIPAMTIAKNAGVEGSLIVEKIMQSSSEVGYDAMAGDFVNMVEKGIIDPTKVVRTALLDAAGVASLLTTAEVVVTEIPKEEKDPGMGAMGGMGGGMGGGMF"}}, "system": "human T cells", "assay": "In vivo homing assay of human T cells to bone marrow", "set-up": "species or system NOD/SCID mice", "conditions": "T cells pretreated (HSP60 1 μg/ml for 1 hr or mAb); 16 hr after injection", "description": "In vivo homing assay. Purified human T cells were incubated (1 hr, tissue culture conditions) with HSP60 (1 μg/ml) in tissue culture conditions. The cells were then washed with PBS, and, where indicated, further incubated (30 min, 4° C.) with mouse anti-human CXCR4 mAb (10 μg/3×10^6 cells), anti-human TLR2 or anti-TLR4 mAb (each at 20 μg/ml). The cells were then washed and injected (5×10^6 cells/0.5 ml per mouse) i.v. into the tails of irradiated (375 cGY from a ^60[Co] source), 8-week-old NOD/SCID mice, and the entrance of human T cells into the bone marrow of recipient mice was evaluated as previously described (Kollet et al., 2001). Each tested sample contained 1.5×10^6 cells."}
{"molecule": "B1", "values": [{"measurement": "homing of human T cells to the bone marrow", "result": "significantly (P<0.05) decreased their homing to the bone marrow"}]}
